4 molecules from patent US20240425593A1 (SICHUAN KELUN BIOTECH BIOPHARMACEUTICAL, published 2024) can be followed below.

Assay [1] concerns the target T1, full-length human PD-1 on CHO-hPD-1 cells (human, UniProt Q15116 25-288).
T1 construct: whole, on cells; also called PD-1 on the cell membrane surface of CHO-hPD-1
Description: flow cytometry on CHO-hPD-1 cells, FITC anti-mouse IgG secondary antibody. The source says:
(§1) In order to verify the binding of anti-human PD-1 murine antibody to PD-1 on the cell membrane surface, FACS technology was used to detect the affinity between murine antibodies and CHO-hPD-1 cells.
(In flow cytometry, cells or beads pass a laser one at a time.)

Assay [2] has as its target T1, full-length human PD-1 on CHO-hPD-1 …. Description: flow cytometry on CHO-hPD-1 cells.
From the text: as §1

The target of assay [3] is T2, human PD-1-hFc (human, UniProt Q15116 25-170).
T2 construct: extracellular domain; Extracellular domain of human PD-1 fused to an hFc tag, made in house; not shown: hFc tag
Description: competitive ELISA, coated human PD-1-hFc, competitor biotinylated PD-L1-mFc. The method, then:
(§2) The specific experimental steps were as follows: human PD-1-hFc antigens were diluted to 1 μg/mL with CBS solution, then coated on a 96-well ELISA plate (purchased from Guangzhou Jiete Bio) at 4° C. overnight. […] After washing, streptavidin labeled with horseradish peroxidase diluted in phosphate buffer (PBS) containing 2% BSA in a ratio of 1:15000 was added, followed by incubating at room temperature for 1 hour. After washing, the TMB chromogen solution was used for developing, and the absorbance value was read using a microplate reader at 450 nm, and the data were imported into Graphprism to calculate the IC₅₀ value.

Assay [4] deals with T2, human PD-1-hFc. Description: ELISA, coated human PD-1-hFc. The method, then: (§3) In order to verify the binding affinity of murine anti-PD-1 antibody to human PD-1-hFc and monkey PD-1-hFc, ELISA was used. The specific experimental steps are as follows: human PD-1-hFc and monkey PD-1-hFc were diluted to 1 μg/mL with CBS solution, and then coated on a 96-well ELISA plate (purchased from Guangzhou Jiete Bio) at 4° C. overnight. […] After washing, a goat anti-mouse secondary antibody (FC) labeled with horseradish peroxidase diluted in phosphate buffer (PBS) containing 2% BSA in a ratio of 1:15000 was added, followed by incubating at 37° C. for 1 hour. After washing, the TMB chromogen solution was used for developing, and the absorbance value was read using a microplate reader at 450 nm. The data were imported into Graphprism to calculate the EC₅₀ value.
In general terms: An ELISA detects its analyte on a solid surface through an enzyme-linked reagent.

The target in assay [5] is T3, monkey PD-1-hFc (monkey).
T3 construct: Extracellular domain of monkey PD-1 fused to an hFc tag, made in house; not shown: The hFc tag and any linker
T3 chain: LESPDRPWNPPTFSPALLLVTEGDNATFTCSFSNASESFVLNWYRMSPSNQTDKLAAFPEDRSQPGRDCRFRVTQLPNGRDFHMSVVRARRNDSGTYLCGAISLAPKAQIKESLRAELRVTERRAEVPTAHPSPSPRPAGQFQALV
Description: ELISA, coated monkey PD-1-hFc. As for the experimental part: as §3

For assay [6], the target named is PD-1 on Jurkat-PD-1-NFAT cells (UniProt Q15116 25-288, limits assumed). Description: cell-based or functional assay.
Assay [7] addresses T2, human PD-1-hFc. Description: competitive ELISA, coated human PD-1-hFc, competitor hPD-L2-mFc. The method, then: as §2, with “was” for “antigens were”, “solution,” for “solution, then”, “overnight. After washing, 100 μL of phosphate buffer (PBS) containing 2% BSA was used for blocking at 37° C. for 1 hour.” for “overnight.”, “a goat anti-mouse secondary antibody” for “streptavidin”, “HRP” for “horseradish peroxidase”, “ICs values.” for “the IC₅₀ value.”

The target in assay [8] is T4, human PD-1-His (human, UniProt Q15116 25-170).
T4 construct: extracellular domain; not shown: His tag
Briefly: BLI (Octet ForteBio), antibody on ProA biosensor, PD-1-His in solution.

Assay [9] has as its target T2, human PD-1-hFc. Description: competitive ELISA, coated PD-1-hFc, competitor PDL2-mFc. As for the experimental part: as §2, with “was” for “antigens were”, “solution,” for “solution, then”, “overnight. After washing, 100 μL of phosphate buffer (PBS) containing 2% BSA was used for blocking at 37° C. for 1 hour.” for “overnight.”, “a goat anti-mouse secondary antibody” for “streptavidin”, “HRP” for “horseradish peroxidase”, “ICs values.” for “the IC₅₀ value.”

Assay [10] addresses T4, human PD-1-His. Briefly: BLI (Octet ForteBio), human PD-1-His. (In general: Biolayer interferometry detects binding as a change in optical thickness at a sensor tip.)
In assay [11] the target is T4, human PD-1-His. Description: BLI (Octet ForteBio), antibody on ProA biosensor, human PD-1-His in solution.
Assay [12] concerns the target T2, human PD-1-hFc. Description: competitive ELISA, coated PD-1-hFc, competitor PDL1-mFc. As for the experimental part:
as §2, with “was” for “antigens were”, “solution,” for “solution, then”, “overnight. After washing, 100 μL of phosphate buffer (PBS) containing 2% BSA was used for blocking at 37° C. for 1 hour.” for “overnight.”, “a goat anti-mouse secondary antibody” for “streptavidin”, “HRP” for “horseradish peroxidase”, “ICs values.” for “the IC₅₀ value.”

Assay [13] concerns the target T3, monkey PD-1-hFc. Briefly: ELISA, coated monkey PD-1-hFc. As for the experimental part: as §2, with “human PD-1-hFc and monkey” for “human”, “a goat anti-human secondary antibody (FC)” for “streptavidin”, “37° C.” for “room temperature”, “EC₅₀ values.” for “the IC₅₀ value.”
Assay [14] has as its target T5, human PD-1-ECD-mFc (human; mouse, UniProt Q15116 25-170).
T5 construct: extracellular domain; Made in HEK293F cells; also called human PD-1-mFc; PD-1-mFc; not shown: mouse Fc (mFc) amino acids, AB097847.1
Description: ELISA, coated antigen (column head: Human PD-1-mFc; text of Example 4.2: human PD-1-hFc). The method, then: as §2, with “human PD-1-hFc and monkey” for “human”, “a goat anti-human secondary antibody (FC)” for “streptavidin”, “37° C.” for “room temperature”, “EC₅₀ values.” for “the IC₅₀ value.”

Assay [15] addresses T2, human PD-1-hFc. Briefly: competitive ELISA, coated human PD-1-hFc, competitor hPD-L1-mFc. As for the experimental part: as §2, with “was” for “antigens were”, “solution,” for “solution, then”, “overnight. After washing, 100 μL of phosphate buffer (PBS) containing 2% BSA was used for blocking at 37° C. for 1 hour.” for “overnight.”, “a goat anti-mouse secondary antibody” for “streptavidin”, “HRP” for “horseradish peroxidase”, “ICs values.” for “the IC₅₀ value.”

Assay [16] has as its target T4, human PD-1-His. Description: ELISA, coated human PD-1-his. The method, then:
To verify the affinity of the humanized PD-1 antibody to PD-1-His antigen, ELISA was employed. The specific experimental steps were as follows: human PD-1-his was diluted to 1 μg/mL with CBS solution, then coated on a 96-well ELISA plate (purchased from Guangzhou Jiete Bio) at 4° C. overnight. […] After washing, a goat anti-mouse secondary antibody (FC) labeled with horseradish peroxidase diluted in phosphate buffer (PBS) containing 2% BSA in a ratio of 1:15000 was added, followed by incubating at 37° C. for 1 hour. After washing, the TMB chromogen solution was used for developing, and the absorbance value was read using a microplate reader at 450 nm. The data were imported into Graphprism to calculate EC₅₀ values.

Assay [17] has as its target T1, full-length human PD-1 on CHO-hPD-1 …. Briefly: competitive FACS on CHO-hPD-1 cells, competitor PD-L1-mFc-Bio. The text has this: The data were imported into Graphprism to calculate IC₅₀ values.

Where two headings read alike, the source gives them in different places.

T1 sequence (Q15116 25-288): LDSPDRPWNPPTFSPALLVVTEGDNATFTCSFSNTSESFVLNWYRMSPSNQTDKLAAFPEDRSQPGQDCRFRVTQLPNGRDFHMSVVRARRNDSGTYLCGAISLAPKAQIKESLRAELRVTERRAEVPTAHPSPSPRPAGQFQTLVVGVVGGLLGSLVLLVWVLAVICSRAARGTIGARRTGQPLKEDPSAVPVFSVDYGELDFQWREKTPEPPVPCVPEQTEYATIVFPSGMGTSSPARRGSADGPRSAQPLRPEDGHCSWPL
T2 sequence (Q15116 25-170): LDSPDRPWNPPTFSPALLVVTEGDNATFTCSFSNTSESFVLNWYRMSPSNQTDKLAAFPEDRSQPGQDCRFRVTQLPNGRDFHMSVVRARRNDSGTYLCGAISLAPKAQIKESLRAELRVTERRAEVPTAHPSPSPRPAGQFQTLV
T4 sequence (Q15116 25-170): as above
Sequence of PD-1 on Jurkat-PD-1-NFAT cells (Q15116 25-288 limits assumed): as the sequence (Q15116 25-288) above
T5 sequence (Q15116 25-170): as the sequence (Q15116 25-170) above

B1: murine antibody 42G1 (antibody, V domains shown)
VH: QVQLKESGAELAKPGASVKMSCEASGYALTSYWMHWVKQGPGQGLEWIGYIHPSTGYTEYNQIFEDKATLSADKSSNTAYMQLTSLTSDDSAVYYCARGAGPYYFDYWGQGTTLTVSS
VL: DIQLTQSPSSLAVSAGEKVIMSCKSSQSLLNSGTRKNYLAWYQQKPGQSPKLLIFWASTRESGVPDRFTGSGSGTDFTLTISSFQAEDLAVYYCKQSYDLITFGPGTKLEIK
notes: Murine antibody from a hybridoma; also called murine PD-1 antibody 42G1
Take B1: in [1], the “EC50 (read off the curve)” value was around 7 nM. The EC50 came to 6.62 nM in [2], 0.0513 nM in assay [4] and 0.0595 nM in [5]. In assay [3], this molecule came in with an IC50 of 4.5 nM.

B2: murine antibody 91D5 (antibody, V domains shown)
VH: EVQLQQSGPELVKPGASVKISCRASGYTFTDYYMNWVKESHGKSLEWIGEINPKYGDTTYNQKFKDKATLTVDKSSSTASVELRSLTSEDSAVYYCAKGIRLFDSWGQGTTVTVSS
VL: DIQLTQSPASLSASVGETVTITCRPSGNVHNYFAWYQQKQGKSPQLLVYNAKTLAEGVPSRFSGSGSGTQYSLKINSLQPEDFGTYYCHHYYTAPFTFGSGTKLEIK
notes: Murine antibody from a hybridoma
B2 returned a concentration for half-maximal inhibition (IC50) in assay [3] of 4.25 nM. Besides, the EC50 in assay [4] is 0.044 nM; in assay [5] it was 0.0685 nM.

B3: chimeric antibody 29C6-CH (antibody, human IgG4 S228P, kappa, V domains shown)
VH: QVQLEESGPELVKPGASVKISCKTSGYTFTEYTIYWVKQSHGKSLEWIGGINPKNGATLYNQKFKVKATLTVDKSSSTAYMELRSLTSEDSAVYYCVRDYHGNSHDSMDYWGQGTSVTVSS
VL: QIVLTQSPAIMSASPGEKVTITCSASSSVSYMHWFRQKPGTSPKLWIYYTSNLASGVPAHFSGSGSGTSYSLTISRMEAEDAATYYCQQRSDYPPTFGGGTKLEIKR
notes: Murine 29C6 variable regions fused to the IgG4 (S228P) heavy chain constant region and the human kappa constant region
Take B3: in assay [6], the “EC50 (nM), cell activity for blocking PD-1/PD-L1 binding, luciferase reporter gene assay” value came out at 10.7 nM. Also, the IC50 in [7] was determined as 1.97 nM; in assay [9], 1.31 nM; in assay [12] it was 1.15 nM; in [15], 1.73 nM; in assay [17] it was 1.7 ng/mL. Besides, the results for the Kd in [8] and in assay [11] were 0.516 nM and 0.88 nM, respectively. In addition, the koff in assay [8] was 0.000166 s⁻¹; in [11], 0.000198 s⁻¹. Besides, the kon was 322000 M⁻¹ s⁻¹ in assay [8] and 226000 M⁻¹ s⁻¹ in assay [11]. Besides, the “fold stronger affinity than the control antibody 1” value in [10] came to 7.3 times. Also, the EC50 was determined as 0.171 nM in [13], 0.115 nM in [14] and 0.17 nM in [16].

B4: murine antibody 29C6 (antibody, V domains shown)
VH: B3 VH
VL: QIVLTQSPAIMSASPGEKVTITCSASSSVSYMHWFRQKPGTSPKLWIYYTSNLASGVPAHFSGSGSGTSYSLTISRMEAEDAATYYCQQRSDYPPTFGGGTKLEIK
notes: Murine antibody from a hybridoma; also called murine PD-1 antibody 29C6
For B4, the “EC50 (read off the curve)” value in assay [1] was around 3 nM. The EC50 in assay [2] was found to be 3.12 nM; in assay [4], 0.0355 nM; in [5] it was 0.0344 nM. The IC50 in assay [3] worked out at 2.93 nM.

A word on the EC50 (read off the curve): it is the concentration needed to bring the measured effect to its halfway point. Usually EC50 stands for the concentration needed to bring the measured effect to its halfway point. As usually defined, the IC50 is the point on the concentration scale where inhibition reaches its midpoint. One may read the Kd as the constant that tells how readily two partners part at equilibrium. In general, koff refers to the rate constant with which the complex falls apart. Usually kon stands for a measure of how fast the partners come together.
